The term Kd denotes the concentration at which binding is half-saturated. Read a high Kd as weaker binding. The term koff denotes the rate constant with which the complex falls apart. What is called kon is the rate constant with which the complex forms.

We go through two substances from PMC4834553.

Test [1] has as its target catalase KatA of H. pylori CCUG18943, endogenous (Helicobacter pylori (endogenous in strain CCUG18943)) (UniProt P77872). Kind of test: flow cytometry on cells; whole H. pylori (wt and ΔkatA) incubated with 3 μg human serum Vn per 10^6 cells, 1 h, 37 °C, PBS 1% BSA; sheep anti-human Vn Ab and FITC-conjugated anti-sheep pAb.
Test [2] addresses catalase KatA of H. pylori KR497, endogenous (Helicobacter pylori (endogenous in strain KR497)) (UniProt P77872). The test is described as above.
The target of test [3] is catalase KatA of H. pylori KR697, endogenous (Helicobacter pylori (endogenous in strain KR697)) (UniProt P77872). Described as above.
Test [4] has as its target Vn^80–396 (human). The test is described as follows: BLI; Octet RED96; Vn 80–396 immobilised on AR2G sensors by amine coupling at pH 5; KatA as analyte, 1 in 3 dilution series (50–0.055 nM) in PBS, 0.05% Tween20; KD from steady state analysis.

On to “human serum vitronectin (Vn), activated, purified from serum (natural protein)”, for which the reduction of Vn binding to whole bacteria on deletion of katA in test [1] worked out at 21%; in test [2], 50%; in test [3], 50%.

As to “full length recombinant KatA (from UniProt P77872 1-505)”, in test [4], the Kd stood at 1 nM, the koff worked out at 0.0003 s⁻¹ and the kon was 1e+06 M⁻¹ s⁻¹.
